# According to US20070149456A1, “Epithelial sodium channel inhibiting agents and uses therefor” (University of Pittsburgh, priority 2005, published 2007):
# Entries after “also recorded” stand apart in the source; their conditions may differ.
# Tests used:
# [1] = target: T1, endogenous ENaC in HAE cells (Homo sapiens, UniProt P37088+P51168+P51170); assay: Amiloride-sensitive short circuit current in primary human airway epithelial (HAE) cell monolayers, Ussing chamber; type: cell-based; conditions: HAE
# T1 construct: endogenous in cells; host or cells: primary human airway (bronchial) epithelial cells from transplant or donor lungs
# Excerpt: Primary Cultures of HAE Cells—HAE cells were obtained from excess pathological tissue remaining after lung transplantation or from organ donor lungs deemed not suitable for transplantation under a protocol approved by the University of Pittsburgh […] Review Board. All cells were isolated from second through sixth generation bronchi and grown on permeable Transwell supports (Coming Inc.) as previously described (Devor, D. C., and Pilewski, J. M. (1999), UTP inhibits Na^+ absorption in wild-type and DeltaF508 CFTR-expressing human bronchial epithelia, Am. J. Physiol. 276, C827-C837 31. ).
# (§1) Short Circuit Current Measurements—Cell culture inserts were mounted in modified Ussing chambers (Harvard Apparatus, Holliston, Mass.), and the monolayers were continuously short-circuited with a voltage/current clamp system (Physiologic Instruments, San Diego, Calif.). A 2-mV bipolar pulse was applied periodically to measure the resistance of the monolayer. As previously described by Bridges et al. (Bridges, R. J., Newton, B. B., Pilewski, J. M., Devor, D. C., Poll, C. T., and Hall, R. L. (2001), Na+ transport in normal and CF human bronchial epithelial cells is inhibited by BAY 39-9437, Am. J. Physiol. 281, L16-L23 32, Na^+ transport in normal and CF human bronchial epithelial cells is inhibited by BAY 39-9437), the bath solution contained (in mM) 120 NaCl, 25 NaHCO3, 3.3 KH2PO4, 0.8 K2HPO4, 1.2 MgCl2, 1.2 CaCl2, and 10 glucose. The pH of this solution was 7.4 when gassed with a mixture of 95% O2-5% CO2 at 37° C.
# Primary cultures of HAE cells grown on permeable membrane supports and mounted in modified Ussing chambers were continuously short-circuited by a voltage clamp amplifier (Physiologic Instruments, San Diego, Calif.). Monolayers were exposed to increasing concentrations of either the γ-peptide (closed circles) or a scrambled peptide (open circles). […] (n=8-9).
# Vectors and Cell Culture—Wild-type, C-terminal and double epitope tagged mouse ENaC subunit cDNAs were previously described (Hughey, R. P., Mueller, G. M., Bruns, J. B., Kinlough, C. L., Poland, P. A., Harkleroad, K. L., Carattino, M. D., and Kleyman, T. R. (2003) J Biol Chem 278, 37073-37082 and Ahn, Y. J., Brooker, D. R., Kosari, F., Harte, B. J., Li, J., Mackler, S. A., and Kleyman, T. R. (1999), Cloning and functional expression of the mouse epithelial sodium channel, Am J Physiol 277, F121-129). The γ subunit mutations were generated in pcDNA3.1 (+) using a standard two-step PCR method. A cDNA clone (IMAGE #: 3600399) encoding full length mouse prostasin was obtained from Open Biosystems (Huntsville, Ala.) and sub-cloned into pcDNA3.1 (+) (Invitrogen, Carlsbad, Calif.). MDCK type 1 cells were a gift from Barry M. Gumbiner (Memorial Sloan-Kettering Cancer Center, New York) and were cultured as previously described (Lavelle, J. P., Negrete, H. O., Poland, P. A., Kinlough, C. L., Meyers, S. D., Hughey, R. P., and Zeidel, M. L. (1997), Low permeabilities of MDCK cell monolayers: a model barrier epithelium, Am J Physiol 273, F67-75). CCD (mpkCCDc14) cells were a gift from Alain Vandewalle (Institut National de la Santéet de la Recherche Médicale, Paris, France) and were cultured as previously described (Bens, M., Vallet, V., Cluzeaud, F., Pascual-Letallec, L., Kahn, A., Rafestin-Oblin, M. E., Rossier, B. C., and Vandewalle, A. (1999) J Am Soc Nephrol 10, 923-934). HAE cells were isolated and cultured as described (Devor, D. C., Bridges, R. J., and Pilewski, J. M. (2000), Pharmacological modulation of ion transport across wild-type and DeltaF508 CFTR-expressing human bronchial epithelia, Am J Physiol Cell Physiol 279, C461-479). […]
# [2] = target: T2, endogenous ENaC in mpkCCDc14 cells (Mus musculus, UniProt Q61180+Q9WU38+Q9WU39); assay: Amiloride-sensitive short circuit current in mpkCCDc14 monolayers, Ussing chamber; type: cell-based; conditions: mpkCCDc14, increasing concentrations of peptide
# T2 construct: endogenous ENaC in a mouse cortical collecting duct (mpkCCDc14) cell line; endogenous in cells; host or cells: mpkCCDc14 mouse cortical collecting duct cell line
# Description: mpkCCDc14 Cell Culture—mpkCCDc14 cells were grown as previously reported (Bens, M., Vallet, V., Cluzeaud, F., Pascual-Letallec, L., Kahn, A., Rafestin-Oblin, M. E., Rossier, B. C., and Vandewalle, A. (1999), Corticosteroid-dependent sodium transport in a novel immortalized mouse collecting duct principal cell line, J. Am. Soc. Nephrol. 10, 923-934). mpkCCDc14 cells were subcultured onto permeable filter supports coated with collagen (0.4-μm pore size, 1-cm^2 surface area, Snapwell filters; Coming Inc., Acton, Mass.). Cells were kept on filters for at least 4 days in defined medium (Bens, M., Vallet, V., Cluzeaud, F., Pascual-Letallec, L., Kahn, A., Rafestin-Oblin, M. E., Rossier, B. C., and Vandewalle, A. (1999) J. Am. Soc. Nephrol. 10, 923-934 30) that was changed every second day. At least 24 h prior to the experiments, the culture medium was replaced with a minimal medium (without drugs or hormones) that contained only Dulbecco's modified Eagle's medium and Ham's F-12.
# as §1
# (FIG. 6A) mpkCCDc14cells cultured on permeable membrane supports and mounted in a modified Ussing chamber were continuously short-circuited by a voltage clamp amplifier (Physiologic Instruments, San Diego, Calif.). Transepithelial resistance was monitored by applying a 4 mV bipolar pulse every 60 seconds. Where indicated, a 43 residue peptide corresponding to E144-K186 of mouse γ-ENaC (γ-peptide) was added to the apical chamber at a final concentration of 3 μM. […] Data presented as mean +/−standard error (n=8).
# Vectors and Cell Culture—Wild-type, C-terminal and double epitope tagged mouse ENaC subunit cDNAs were previously described (Hughey, R. P., Mueller, G. M., Bruns, J. B., Kinlough, C. L., Poland, P. A., Harkleroad, K. L., Carattino, M. D., and Kleyman, T. R. (2003) J Biol Chem 278, 37073-37082 and Ahn, Y. J., Brooker, D. R., Kosari, F., Harte, B. J., Li, J., Mackler, S. A., and Kleyman, T. R. (1999), Cloning and functional expression of the mouse epithelial sodium channel, Am J Physiol 277, F121-129). The γ subunit mutations were generated in pcDNA3.1 (+) using a standard two-step PCR method. A cDNA clone (IMAGE #: 3600399) encoding full length mouse prostasin was obtained from Open Biosystems (Huntsville, Ala.) and sub-cloned into pcDNA3.1 (+) (Invitrogen, Carlsbad, Calif.). MDCK type 1 cells were a gift from Barry M. Gumbiner (Memorial Sloan-Kettering Cancer Center, New York) and were cultured as previously described (Lavelle, J. P., Negrete, H. O., Poland, P. A., Kinlough, C. L., Meyers, S. D., Hughey, R. P., and Zeidel, M. L. (1997), Low permeabilities of MDCK cell monolayers: a model barrier epithelium, Am J Physiol 273, F67-75). CCD (mpkCCDc14) cells were a gift from Alain Vandewalle (Institut National de la Santéet de la Recherche Médicale, Paris, France) and were cultured as previously described (Bens, M., Vallet, V., Cluzeaud, F., Pascual-Letallec, L., Kahn, A., Rafestin-Oblin, M. E., Rossier, B. C., and Vandewalle, A. (1999) J Am Soc Nephrol 10, 923-934).
# [3] = target: T2, endogenous ENaC in mpkCCDc14 cells; assay: as above; type: cell-based; conditions: peptide 50 μM
# [4] = target: endogenous ENaC in primary cultures of human airway epithelial (HAE) cells (human, UniProt P51168 1-640); assay: cell-based or functional assay
# [5] = target: endogenous ENaC in the mouse cortical collecting duct cell line mpkCCDc14 (mouse, UniProt Q9WU38 1-638); assay: cell-based or functional assay
# [6] = target: wild-type αβγ mouse epithelial sodium channel (ENaC) expressed in Xenopus oocytes (mouse, UniProt Q9WU38 1-638); assay: cell-based or functional assay
# Sequence of wild-type αβγ mouse epithelial sodium channel (ENaC) expressed in Xenopus oocytes (chain, as listed by the source, chain 1 of 3): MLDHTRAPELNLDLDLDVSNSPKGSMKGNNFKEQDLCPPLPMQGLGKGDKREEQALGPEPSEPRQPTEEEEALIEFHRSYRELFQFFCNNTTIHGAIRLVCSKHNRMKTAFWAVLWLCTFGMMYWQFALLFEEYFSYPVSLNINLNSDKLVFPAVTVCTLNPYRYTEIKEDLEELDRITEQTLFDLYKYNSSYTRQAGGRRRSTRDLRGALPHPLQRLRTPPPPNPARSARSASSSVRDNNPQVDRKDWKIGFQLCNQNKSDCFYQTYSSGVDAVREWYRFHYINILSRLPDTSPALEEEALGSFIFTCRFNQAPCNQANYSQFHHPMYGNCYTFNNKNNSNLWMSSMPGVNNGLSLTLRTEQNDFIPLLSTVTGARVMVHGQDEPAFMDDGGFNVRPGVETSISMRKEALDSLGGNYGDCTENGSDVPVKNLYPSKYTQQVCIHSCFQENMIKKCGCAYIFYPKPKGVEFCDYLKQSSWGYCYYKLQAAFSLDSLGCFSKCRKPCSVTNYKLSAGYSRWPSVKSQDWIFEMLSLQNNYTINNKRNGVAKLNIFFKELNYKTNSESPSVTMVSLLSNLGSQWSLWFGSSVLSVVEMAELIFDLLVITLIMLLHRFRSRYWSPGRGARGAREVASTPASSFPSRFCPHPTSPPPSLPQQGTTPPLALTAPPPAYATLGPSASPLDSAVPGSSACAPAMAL
# Sequence of wild-type αβγ mouse epithelial sodium channel (ENaC) expressed in Xenopus oocytes (Q9WU38 whole entry, chain 2 of 3): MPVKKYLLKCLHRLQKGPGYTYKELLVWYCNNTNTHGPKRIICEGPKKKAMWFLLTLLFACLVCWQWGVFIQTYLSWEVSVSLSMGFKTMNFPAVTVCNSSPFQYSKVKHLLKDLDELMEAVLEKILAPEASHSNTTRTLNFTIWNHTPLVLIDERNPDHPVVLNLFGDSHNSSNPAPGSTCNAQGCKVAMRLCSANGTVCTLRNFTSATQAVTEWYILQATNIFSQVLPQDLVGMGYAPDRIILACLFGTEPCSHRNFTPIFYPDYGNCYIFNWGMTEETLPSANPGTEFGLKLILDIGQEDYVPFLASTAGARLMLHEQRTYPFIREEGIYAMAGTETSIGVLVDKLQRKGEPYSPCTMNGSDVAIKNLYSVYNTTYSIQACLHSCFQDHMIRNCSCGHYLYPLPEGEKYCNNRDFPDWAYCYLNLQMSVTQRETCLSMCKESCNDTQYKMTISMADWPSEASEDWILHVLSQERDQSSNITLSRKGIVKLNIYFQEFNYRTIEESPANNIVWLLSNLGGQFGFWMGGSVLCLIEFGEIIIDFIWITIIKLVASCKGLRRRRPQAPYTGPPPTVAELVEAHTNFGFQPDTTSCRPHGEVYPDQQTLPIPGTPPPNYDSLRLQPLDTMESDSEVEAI
# Sequence of wild-type αβγ mouse epithelial sodium channel (ENaC) expressed in Xenopus oocytes (chain, as listed by the source, chain 3 of 3): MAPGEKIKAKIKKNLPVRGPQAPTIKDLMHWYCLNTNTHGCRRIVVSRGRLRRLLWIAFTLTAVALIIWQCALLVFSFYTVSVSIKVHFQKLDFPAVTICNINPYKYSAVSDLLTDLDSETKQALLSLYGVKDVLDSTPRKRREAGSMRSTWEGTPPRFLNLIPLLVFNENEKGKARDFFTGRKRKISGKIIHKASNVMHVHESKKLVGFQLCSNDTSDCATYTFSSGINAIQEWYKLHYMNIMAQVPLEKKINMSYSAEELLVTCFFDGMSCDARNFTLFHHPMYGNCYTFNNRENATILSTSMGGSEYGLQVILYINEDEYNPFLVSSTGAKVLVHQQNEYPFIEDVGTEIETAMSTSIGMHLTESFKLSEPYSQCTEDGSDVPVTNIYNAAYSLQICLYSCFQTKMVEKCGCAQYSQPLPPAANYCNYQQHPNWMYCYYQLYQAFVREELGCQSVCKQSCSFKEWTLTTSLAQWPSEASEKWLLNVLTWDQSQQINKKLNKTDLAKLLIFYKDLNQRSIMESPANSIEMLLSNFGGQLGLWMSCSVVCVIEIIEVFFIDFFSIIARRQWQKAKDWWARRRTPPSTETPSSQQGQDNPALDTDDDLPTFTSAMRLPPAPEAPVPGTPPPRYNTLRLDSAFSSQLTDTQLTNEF
# Sequence of endogenous ENaC in primary cultures of human airway epithelial (HAE) cells (chain, as listed by the source, chain 1 of 3): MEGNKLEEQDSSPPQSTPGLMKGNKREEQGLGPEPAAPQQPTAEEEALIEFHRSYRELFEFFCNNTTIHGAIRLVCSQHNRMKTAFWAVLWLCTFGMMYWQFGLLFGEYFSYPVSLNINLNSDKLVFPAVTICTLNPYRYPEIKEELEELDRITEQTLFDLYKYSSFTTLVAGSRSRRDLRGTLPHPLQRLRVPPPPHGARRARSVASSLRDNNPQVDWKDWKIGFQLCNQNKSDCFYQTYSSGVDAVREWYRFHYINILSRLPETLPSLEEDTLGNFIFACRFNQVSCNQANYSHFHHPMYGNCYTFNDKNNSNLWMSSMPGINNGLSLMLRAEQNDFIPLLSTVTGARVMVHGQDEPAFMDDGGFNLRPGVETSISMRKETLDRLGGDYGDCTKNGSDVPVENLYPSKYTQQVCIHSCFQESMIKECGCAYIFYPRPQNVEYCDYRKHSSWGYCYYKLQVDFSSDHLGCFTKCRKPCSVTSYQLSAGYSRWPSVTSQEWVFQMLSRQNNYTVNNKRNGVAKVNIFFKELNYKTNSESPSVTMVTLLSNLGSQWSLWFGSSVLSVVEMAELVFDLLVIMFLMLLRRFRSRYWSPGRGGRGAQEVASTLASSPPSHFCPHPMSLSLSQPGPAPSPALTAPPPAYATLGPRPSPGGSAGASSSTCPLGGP
# Sequence of endogenous ENaC in primary cultures of human airway epithelial (HAE) cells (P51168 whole entry, chain 2 of 3): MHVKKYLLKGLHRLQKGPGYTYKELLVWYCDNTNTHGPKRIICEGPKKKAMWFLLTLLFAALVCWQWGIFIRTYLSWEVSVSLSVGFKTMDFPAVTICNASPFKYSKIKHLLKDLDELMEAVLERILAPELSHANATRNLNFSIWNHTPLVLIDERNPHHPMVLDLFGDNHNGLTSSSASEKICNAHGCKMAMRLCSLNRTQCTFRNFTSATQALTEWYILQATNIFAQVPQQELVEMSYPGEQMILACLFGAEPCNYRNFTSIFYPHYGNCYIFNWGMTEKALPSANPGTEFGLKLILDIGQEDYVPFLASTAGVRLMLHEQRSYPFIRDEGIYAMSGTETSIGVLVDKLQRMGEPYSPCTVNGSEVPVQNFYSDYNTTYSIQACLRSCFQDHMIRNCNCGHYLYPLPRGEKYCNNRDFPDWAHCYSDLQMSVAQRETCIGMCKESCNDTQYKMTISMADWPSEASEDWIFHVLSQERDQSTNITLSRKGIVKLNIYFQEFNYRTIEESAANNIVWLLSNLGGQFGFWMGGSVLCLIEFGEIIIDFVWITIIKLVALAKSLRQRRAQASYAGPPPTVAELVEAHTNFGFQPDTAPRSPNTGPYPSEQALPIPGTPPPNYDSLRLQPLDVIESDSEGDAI
# Sequence of endogenous ENaC in primary cultures of human airway epithelial (HAE) cells (chain, as listed by the source, chain 3 of 3): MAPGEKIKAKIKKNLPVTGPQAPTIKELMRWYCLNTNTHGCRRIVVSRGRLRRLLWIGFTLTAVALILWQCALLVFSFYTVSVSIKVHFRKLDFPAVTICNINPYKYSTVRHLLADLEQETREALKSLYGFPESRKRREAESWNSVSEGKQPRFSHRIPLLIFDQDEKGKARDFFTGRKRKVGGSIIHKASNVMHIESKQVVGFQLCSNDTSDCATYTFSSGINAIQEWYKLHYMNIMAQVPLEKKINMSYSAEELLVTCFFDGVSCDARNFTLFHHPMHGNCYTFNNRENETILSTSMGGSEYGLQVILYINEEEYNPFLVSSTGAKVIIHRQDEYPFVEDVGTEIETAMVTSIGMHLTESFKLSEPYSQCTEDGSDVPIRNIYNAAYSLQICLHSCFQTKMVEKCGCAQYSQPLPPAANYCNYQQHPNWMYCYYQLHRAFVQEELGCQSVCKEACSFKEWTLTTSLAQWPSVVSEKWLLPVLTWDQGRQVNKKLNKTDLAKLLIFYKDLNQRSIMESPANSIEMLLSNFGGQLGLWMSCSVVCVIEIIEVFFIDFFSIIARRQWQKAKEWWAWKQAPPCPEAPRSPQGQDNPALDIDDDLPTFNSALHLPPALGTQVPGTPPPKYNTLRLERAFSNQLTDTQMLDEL
# Sequence of endogenous ENaC in the mouse cortical collecting duct cell line mpkCCDc14 (Q9WU38 whole entry, chain 2 of 3): as the sequence (Q9WU38 whole entry, chain 2 of 3) above
molecule,measurement,setting,value
"FKGFVGKEALREILTFWLRFNNTEMDSKPLRTRANPPSKGGRE (Ac-FKGFVGKEALREILTFWLRFNNTEMDSKPLRTRANPPSKGGRE-NH2) [scrambled peptide, reference compound]",inhibition of amiloride sensitive short circuit currents,[1]; increasing concentrations of peptide,minimal effect; also recorded: failed to inhibit; also recorded: only a slight inhibition
same,inhibition of amiloride sensitive short circuit currents,[2],minimal effect; also recorded: failed to inhibit
"PLTQPRPRLADHNPLSARRRPLPAGP (Ac-PLTQPRPRLADHNPLSARRRPLPAGP-NH2) [SCR, reference compound]",inhibition of Isc,[1]; peptide 50 μM,did not inhibit
same,inhibition of Isc,[3],did not inhibit
Ac-DLRGALPHPLQRLRTPPPPNPARSAR-NH2,"IC50, inhibition of amiloride-sensitive short circuit current (Isc) in HAE monolayers (FIG. 5A)",[4],46000 nM
same,"IC50, inhibition of amiloride-sensitive short circuit current (Isc) in mpkCCDc14 monolayers (FIG. 5B)",[5],100000 nM
same,"IC50, inhibition of amiloride-sensitive whole cell Na+ current in oocytes, holding potential -20 mV",[6],2900 nM
same,"IC50, inhibition of amiloride-sensitive whole cell Na+ current in oocytes, holding potential -100 mV",[6],2900 nM
same,"IC50, inhibition of amiloride-sensitive whole cell Na+ current, two-electrode voltage clamp in Xenopus oocytes (FIG. 3A; holding potential -60 mV, value repeated in the same paragraph)",[6],2800 nM
LPHPLQRL [8-residue fragment LPHPLQRL of α-26],"IC50, inhibition of mouse ENaCs expressed in oocytes",[6],~1000 nM
"Ac-EAGSMRSTWEGTPPRFLNLIPLLVFNENEKGKARDFFTGRKRK-NH2 [γ-43, synthetic 43-residue peptide corresponding to the tract Glu144-Lys186 of mouse γ ENaC]","IC50, inhibition of amiloride sensitive short circuit currents in primary HAE cells (FIG. 7)",[4],1900 nM
same,"IC50, inhibition of short circuit currents in primary cultures of HAE cells (FIG. 18C)",[4],2000 nM
same,"IC50, inhibition of amiloride sensitive short circuit currents in mpkCCDc14 cells (FIG. 6B)",[5],3200 nM
same,"IC50, inhibition of short circuit currents in mouse CCD cells (FIG. 18B)",[5],3200 nM
